Test results from publication PMC7666158.

B1: Sbit-ATF2(19–100), ATF2 TAD wild type (NanoBiT probe) [human] / Lbit-JNK1 (NanoBiT probe) [human] (parent)
chain 1: MSDDKPFLCTAPGCGQRFTNEDHLAVHKHKHEMTLKFGPARNDSVIVADQTPTPTRFLKNCEEVGLFNELASPFENEFKKAS
chain 2: MSRSKRDNNFYSVEIGDSTFTVLKRYQNLKPIGSGAQGIVCAAYDAILERNVAIKKLSRPFQNQTHAKRAYRELVLMKCVNHKNIIGLLNVFTPQKSLEEFQDVYIVMELMDANLCQVIQMELDHERMSYLLYQMLCGIKHLHSAGIIHRDLKPSNIVVKSDCTLKILDFGLARTAGTSFMMTPYVVTRYYRAPEVILGMGYKENVDLWSVGCIMGEMVCHKILFPGRDYIDQWNKVIEQLGTPCPEFMKKLQPTVRTYVENRPKYAGYSFEKLFPDVLFPADSEHNKLKASQARDLLSKMLVIDASKRISVDEALQHPYINVWYDPSEAEAPPPKIPDKQLDEREHTIEEWKELIYKEVMDLEERTKNGVIRGQPSPLGAAVINGSQHPSSSSSVNDVSSMSTDPTLASDTDSSLEAAAGPLGCCR

Variants of: B1
Assay: NanoBit luciferase complementation in HEK293T cells
Details: with Lbit-JNK1 (NanoBiT probe) [human]; anisomycin (30 min); normalized to control (−) = 1.0; read off a plot; scale: relative luminescence intensity

Row | Variant | response
1 | chain 1 K30E | 1
